Experimental data published in doi:10.1101/2022.06.02.494603.
Where a chain is given by its changes, count along the chain named. In names and notes the source's numbering stands.

B1: TBK1 p.E696K, untagged, Q9UHD2 1-729 (natural protein)
chain: MQSTSNHLWLLSDILGQGATANVFRGRHKKTGDLFAIKVFNNISFLRPVDVQMREFEVLKKLNHKNIVKLFAIEEETTTRHKVLIMEFCPCGSLYTVLEEPSNAYGLPESEFLIVLRDVVGGMNHLRENGIVHRDIKPGNIMRVIGEDGQSVYKLTDFGAARELEDDEQFVSLYGTEEYLHPDMYERAVLRKDHQKKYGATVDLWSIGVTFYHAATGSLPFRPFEGPRRNKEVMYKIITGKPSGAISGVQKAENGPIDWSGDMPVSCSLSRGLQVLLTPVLANILEADQEKCWGFDQFFAETSDILHRMVIHVFSLQQMTAHKIYIHSYNTATIFHELVYKQTKIISSNQELIYEGRRLVLEPGRLAQHFPKTTEENPIFVVSREPLNTIGLIYEKISLPKVHPRYDLDGDASMAKAITGVVCYACRIASTLLLYQELMRKGIRWLIELIKDDYNETVHKKTEVVITLDFCIRNIEKTVKVYEKLMKINLEAAELGEISDIHTKLLRLSSSQGTIETSLQDIDSRLSPGGSLADAWAHQEGTHPKDRNVEKLQVLLNCMTEIYYQFKKDKAERRLAYNEEQIHKFDKQKLYYHATKAMTHFTDECVKKYEAFLNKSEEWIRKMLHLRKQLLSLTNQCFDIEEEVSKYQEYTNELQETLPQKMFTASSGIKHTMTPIYPSSNTLVEMTLGMKKLKEKMEGVVKELAENNHILERFGSLTMDGGLRNVDCL
B2: TBK1 G217R, untagged, Q9UHD2 1-729 (natural protein)
chain: B1 chain with G217R, K696E

Biological target: optineurin, C-terminal myc-FLAG-tagged, Q96CV9
Experiment: co-IP
Conditions: remark: other sources report otherwise

Chain of optineurin, C-terminal myc-FLAG-tagged, Q96CV9 (Q96CV9 whole entry): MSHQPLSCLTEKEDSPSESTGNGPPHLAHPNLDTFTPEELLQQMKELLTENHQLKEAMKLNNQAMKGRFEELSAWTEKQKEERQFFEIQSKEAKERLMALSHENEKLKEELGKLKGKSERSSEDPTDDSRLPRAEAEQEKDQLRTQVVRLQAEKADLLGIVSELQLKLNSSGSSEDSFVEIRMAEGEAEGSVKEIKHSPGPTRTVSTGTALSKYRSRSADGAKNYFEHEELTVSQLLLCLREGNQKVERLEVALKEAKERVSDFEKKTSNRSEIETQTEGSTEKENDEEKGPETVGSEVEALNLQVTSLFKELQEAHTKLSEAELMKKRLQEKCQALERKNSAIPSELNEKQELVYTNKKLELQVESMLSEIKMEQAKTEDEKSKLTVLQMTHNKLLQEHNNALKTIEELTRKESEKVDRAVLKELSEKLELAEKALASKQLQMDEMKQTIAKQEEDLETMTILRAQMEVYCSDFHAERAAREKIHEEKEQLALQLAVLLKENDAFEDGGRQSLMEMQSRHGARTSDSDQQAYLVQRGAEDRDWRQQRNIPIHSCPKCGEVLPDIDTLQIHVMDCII

Row | Binder | TBK1 bound to OPTN relative to wild type (relative to TBK1 WT)
1 | B1 | 0.02
2 | B2 | 0.27
